Measurements published in article PMC10778174.

Target: BG505-SOSIP trimer Env (subtype A) (HIV-1 (subtype A, BG505))
Experiment: SEC + other: negative-stain EM; gel-filtration and negative-stain EM of the purified BG505 SOSIP; conditions not given

BG505-SOSIP trimer Env (subtype A) (complex)
stoichiometry N: 3
